Values quoted from earlier work in paper PMC3471383.

Molecular target: FcγRI (Homo sapiens) (UniProt P12314)
Sequence of UniProt P12314 (P12314 16-292): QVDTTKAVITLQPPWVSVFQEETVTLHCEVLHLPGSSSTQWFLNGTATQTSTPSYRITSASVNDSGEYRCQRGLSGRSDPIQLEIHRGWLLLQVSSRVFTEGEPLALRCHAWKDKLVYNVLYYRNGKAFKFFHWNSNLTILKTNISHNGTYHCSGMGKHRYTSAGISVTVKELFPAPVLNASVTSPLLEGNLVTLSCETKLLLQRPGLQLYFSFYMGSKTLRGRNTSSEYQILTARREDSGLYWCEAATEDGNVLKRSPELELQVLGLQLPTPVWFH

- Kd: 500 nM
Substance: SAP (from UniProt P02743)
